B1: HDV Ribozyme (parent)
chain: GGCCGGCAUGGUCCCAGCCUCCUCGCUGGCGCCGGCUGGGCAACAUUCCGAGGGGACCGUCCCCUCGGUAAUGGCGAAUGGGACCCA

Variants of: B1
Test: self-cleavage, relative activity (ratio to wild type); higher = more cleavage; co-transcriptional

| Variant | self-cleavage |
| --- | --- |
| GGCCGGCAUGUUCCCAGCCUUCUCGCUGGCGCCGGCUGGGCAACAUUCCGAGGGGACCGUCCCCUCGGUAAUGGCGAAUGGGACCCA [G11U C21U] | 0.0923 |
| GGCCGGCAUGGUCCCAGACUCCUCGCUGGCGCUGGCUGGGCAACAUUCCGAGGGGACCGUCCCCUCGGUAAUGGCGAAUGGGACCCA [C18A C33U] | 0.0489 |
| GGCCGGCAUGGUCCCAGCCUCCUCGCUGGCGCCGGCUGGGCAACAUUCCGAGGGGGCCGUCCCCUCGGUGAUGGCGAAUGGGACCCA [A56G A70G] | 1.14 |
| GGCCGGCAUGGUCCCAGCCUCCUCGCUGGCGCCGGGUGGGCAACAUUCCGAGGGGACCGUCCCCUCGGUAAUGGCAAAUGGGACCCA [C36G G76A] | 0.162 |
| GGCCGGCAUGGUCCCAGCCUCCUCGCUGGCGCCGGCUGGGCAACAUUCCGAGGGGAGCGUCCCCUCGGUAAUGCCGAAUGGGACCCA [C57G G74C] | 0.446 |
| GGCCGGAAUGGUCCCAGCCUCCUCGCUGGCGCCGGCUGGGCAACAUUCGGAGGGGACCGUCCCCUCGGUAAUGGCGAAUGGGACCCA [C7A C49G] | 0.291 |
| GGCCGGCAUGGUCCCAGCCUCCUCUCUGGCGCCGGCUGGGCAACAUUCCGAGGGGACCCUCCCCUCGGUAAUGGCGAAUGGGACCCA [G25U G59C] | 0.0997 |
| GGCCGGCAUGGCCCCAACCUCCUCGCUGGCGCCGGCUGGGCAACAUUCCGAGGGGACCGUCCCCUCGGUAAUGGCGAAUGGGACCCA [U12C G17A] | 0.312 |
| GGCCGGCAUGGUCCCAGCCACUUCGCUGGCGCCGGCUGGGCAACAUUCCGAGGGGACCGUCCCCUCGGUAAUGGCGAAUGGGACCCA [U20A C22U] | 0 |
| GGCCGGCAUGGUCCUAGCCUCCUCGCUGACGCCGGCUGGGCAACAUUCCGAGGGGACCGUCCCCUCGGUAAUGGCGAAUGGGACCCA [C15U G29A] | 0.154 |
| GGCCGGCAUGGUCCCAGCCUCAUCGCUGGCGCAGGCUGGGCAACAUUCCGAGGGGACCGUCCCCUCGGUAAUGGCGAAUGGGACCCA [C22A C33A] | 0.0314 |
| GGCCGGCAUGGUCCCAGCCUCCUCGCUGGCGCGGGCGGGGCAACAUUCCGAGGGGACCGUCCCCUCGGUAAUGGCGAAUGGGACCCA [C33G U37G] | 0.161 |
| GGCCGGCAUGGUCCCAGCCUCCUCGCUGGCGCCGGCUGGGCAACAUUCCGAGGGGACCCUCCCCUCGGUAAUGGCGAAUGGGAGCCA [G59C C84G] | 0.831 |
| GGCCGGCAUGGUCCCAGCCUCCUCGCUGGAGCCGGCUGGGCAACAUUCCGAGGGGACCGUCCCCCCGGUAAUGGCGAAUGGGACCCA [C30A U65C] | 0.644 |
| GGCCGGCAUGGUCCCAGCCUCCUCGCUGGCGCCGGCUGGGCGACAUUCCUAGGGGACCGUCCCCUCGGUAAUGGCGAAUGGGACCCA [A42G G50U] | 0.542 |
| GGCCGGCAUAGUCCCAGCCUCCUCGCUGGCGCCGGCUGGGCAACAUUCCGAGGGGACCGUCCCCUCGGUAAUGGCGAAUGGGAACCA [G10A C84A] | 0.562 |
| GGCCGGCAUAGUCCCAGCCUCCUCGCUGGCGCCGGCUGGGCAACAUUCCGAGGGGACCGUCCCCUGGGUAAUGGCGAAUGGGACCCA [G10A C66G] | 0.623 |
| GGCCGGCAUGGUCCCAGCCUCCUCGCUGGCGCCGGCUGGGCAACAAUACGAGGGGACCGUCCCCUCGGUAAUGGCGAAUGGGACCCA [U46A C48A] | 0.665 |
| GGCCGGCAUGGUCCCAGCCUCCUCGCUGGCGUCGGCUGGGAAACAUUCCGAGGGGACCGUCCCCUCGGUAAUGGCGAAUGGGACCCA [C32U C41A] | 0.591 |
| UGCCGGCCUGGUCCCAGCCUCCUCGCUGGCGCCGGCUGGGCAACAUUCCGAGGGGACCGUCCCCUCGGUAAUGGCGAAUGGGACCCA [G1U A8C] | 0.415 |
| GGCCGGCAUGGUCCCAGCCUCCUCGCUGGCACCAGCUGGGCAACAUUCCGAGGGGACCGUCCCCUCGGUAAUGGCGAAUGGGACCCA [G31A G34A] | 0.0934 |
| GGCCGGCAUGCUCCCAGCCUCCUCGCUGGCGCCGGCUGGGCAACAUUCCGAGGGGACCGUCCCGUCGGUAAUGGCGAAUGGGACCCA [G11C C64G] | 0.514 |

| Variant | self-cleavage |
| --- | --- |
| GGCCAGCAUGGUCCCAGCCUCCUCGCUGGCGCCGGCUGGGCAACAUUCCGAAGGGACCGUCCCCUCGGUAAUGGCGAAUGGGACCCA [G5A G52A] | 0.227 |
| GGCCGGCAUGGUCCCAGCCUCCUCGGUGGCGCCGGCUGGGCAACAUUCCGAGGGGACCGUCCCCUCGGUAAUGGCGAAUGGGACUCA [C26G C85U] | 0.956 |
| GGCCGGCAUGGUCCCUGCCUCCCCGCUGGCGCCGGCUGGGCAACAUUCCGAGGGGACCGUCCCCUCGGUAAUGGCGAAUGGGACCCA [A16U U23C] | 0.831 |
| GGCCGGCAUGGUCCCAGCCUCCUCGCUGGCGCCGGCUGGGCAACAUUCCGACGGGACCGUCCCCUCGGCAAUGGCGAAUGGGACCCA [G52C U69C] | 0.943 |
| GGCCGGCAUGGUCCCAGCCUCCUCGCUGGCGCCGGCUGGGCAACAUGCCGAGGGGACCGUCCCCUCGGUAAUCGCGAAUGGGACCCA [U47G G73C] | 0.534 |
| GGCCGGCAUGGUCCCAGCCUCCUCGCUGGCGCCGGUUGGGCAACAUUCCGAGGGGACCGUCCCCUCGGUAAUGGCGAAUGGGACCCG [C36U A87G] | 0.674 |
| GGCCGGCAUGGUCCCAGCCUCCUCGCUGGCGCCGGCUGGGCAACAUUCCGAGGGGACCGUCCCCUCGGUAAUGGCGCAUGGGAUCCA [A77C C84U] | 0.326 |
| GGCCGGCAUGGUACCAGCCUCCUCGCUGGCGCCGGCUGGGCAACAUUCAGAGGGGACCGUCCCCUCGGUAAUGGCGAAUGGGACCCA [C13A C49A] | 0.0489 |
| GGCCGACAUGGUCCCAGCCUCCACGCUGGCGCCGGCUGGGCAACAUUCCGAGGGGACCGUCCCCUCGGUAAUGGCGAAUGGGACCCA [G6A U23A] | 0.569 |
| GGCCGACAUGGUCUCAGCCUCCUCGCUGGCGCCGGCUGGGCAACAUUCCGAGGGGACCGUCCCCUCGGUAAUGGCGAAUGGGACCCA [G6A C14U] | 0.87 |
| GGCCGGCAUGGUCCCAGCCUCCUCGCUGGCGCCGGCUGGGCAACAUUCCGAGGGGAACGUCCCCUCGGUAAUGGCGCAUGGGACCCA [C57A A77C] | 0.314 |
| GGCCGGCGUGGUCCCAGCCUCCUCGCUGGCGCUGGCUGGGCAACAUUCCGAGGGGACCGUCCCCUCGGUAAUGGCGAAUGGGACCCA [A8G C33U] | 0.751 |
| GGCCGGCAUGGUCCCAGCCUUCUCGCUGGCGCCGGCUGGGCAACAUUCCGAGGGGACCGUCCCUUCGGUAAUGGCGAAUGGGACCCA [C21U C64U] | 0.17 |
| GGCCGGCAUUGUCCCAGCCUCCUCGCUGGCGCCGGCUGUGCAACAUUCCGAGGGGACCGUCCCCUCGGUAAUGGCGAAUGGGACCCA [G10U G39U] | 0.346 |
| GGCCGGCAUGGUCCCAGCCUCCUCGCUGGCGCCGGCUGGGCAACAUUCCGAGGGGACCGUCCCCUCGGUAAUGGCGAAUCGGAACCA [G80C C84A] | 0.144 |
| GGCCGGAAUGGUCCCAGCCUCCUCGCUGGCGCCGGCUCGGCAACAUUCCGAGGGGACCGUCCCCUCGGUAAUGGCGAAUGGGACCCA [C7A G38C] | 0.106 |
| GGCCGGCAUGGUCCCAGCCUCCUCCCUGGCGCCGGCUGGGCAACAUUCCGAGGGGACCGUCCCCUCGGUAAUGGCGAAUGGGUCCCA [G25C A83U] | 0.0923 |
| GGCCGGCAUGGUCCCAGCCGCCUCGCUGGCGCCGGCUGGGCAACAUUCCGAGGGGACCGUCCCCUCGGUAAAGGCGAAUGGGACCCA [U20G U72A] | 0.0875 |
| GGCCGGCAUGGACCCAGCCUCCUCGCUGGCGCCGGCGGGGCAACAUUCCGAGGGGACCGUCCCCUCGGUAAUGGCGAAUGGGACCCA [U12A U37G] | 0.0536 |
| GGCCGGCAUGGACCCAGCCUCCUCGCUGGCGCCGGCUGGGCAACAUUCCGAAGGGACCGUCCCCUCGGUAAUGGCGAAUGGGACCCA [U12A G52A] | 0.364 |
| GGCCGGCAUGGUCCCAGCCUCCUCGCUGGCGCCGGCUGGGCAACAUUCUGAGGGGACCGUCCCCUCGUUAAUGGCGAAUGGGACCCA [C49U G68U] | 0.817 |
| GGCCGGCAUGGUGCCAGCCUCCUCGCUGGCGCCGGCUGGGCAACAUUCCGAGGGGACCGUGCCCUCGGUAAUGGCGAAUGGGACCCA [C13G C61G] | 0.0852 |

| Variant | self-cleavage |
| --- | --- |
| GGCCGGCAUGGUCCCAGCCUCCCCGCUGGGGCCGGCUGGGCAACAUUCCGAGGGGACCGUCCCCUCGGUAAUGGCGAAUGGGACCCA [U23C C30G] | 0.0437 |
| GGCCGGCAUGGUACCAGCCUCCUCGCUGGCGCCGGCUGGGCAACAUUCCGAGGGGACCGUCCCCUCGGUAAUGGCAAAUGGGACCCA [C13A G76A] | 0.199 |
| GGCCGGCAUGGUCCCAGCCUCCUCGCUGGCGCCGGCUGGGCAACAUUCCGAGGGGACCGUCGCCUCGAUAAUGGCGAAUGGGACCCA [C62G G68A] | 0.199 |
| GCCCGGUAUGGUCCCAGCCUCCUCGCUGGCGCCGGCUGGGCAACAUUCCGAGGGGACCGUCCCCUCGGUAAUGGCGAAUGGGACCCA [G2C C7U] | 0.089 |
| GGCCGGCGUGGUCCCAGCCUCCUCGCUGGCGCCGGCUGGGCAACAUUCCGAGGGGACCGUCCCUUCGGUAAUGGCGAAUGGGACCCA [A8G C64U] | 1.07 |
| GGCCGGCAUGGUCCCAGCCUCCUCGCUGGCGCCGGCUGGGCAACAUUCCAAGGGGACCGUCCCCUCGGUAAUGGCGAAUGGGCCCCA [G50A A83C] | 0.525 |
| GGCCGGCAUGGUCCCAGCCUCCUCGCUGGCGCCGGCUGGACAACAUUCCGAGGGGACCAUCCCCUCGGUAAUGGCGAAUGGGACCCA [G40A G59A] | 0.87 |
| GGCCGGCAUGGUCCCAGCCUCCUCUCUGGCGCCGGCUGGGCAAUAUUCCGAGGGGACCGUCCCCUCGGUAAUGGCGAAUGGGACCCA [G25U C44U] | 0.119 |
| GGCCGGCAUGGUCACAGCCUCCUCGCGGGCGCCGGCUGGGCAACAUUCCGAGGGGACCGUCCCCUCGGUAAUGGCGAAUGGGACCCA [C14A U27G] | 0.895 |
| GGCCGACAUGGUCCCAGCCUCCUCGCUGGCGCAGGCUGGGCAACAUUCCGAGGGGACCGUCCCCUCGGUAAUGGCGAAUGGGACCCA [G6A C33A] | 0.0678 |
| GGCCGGCAUGGUCCCAGCCUCCGCGCUGGCGCCGGCUGGGCAACAUUCCGAGGGGACCGUGCCCUCGGUAAUGGCGAAUGGGACCCA [U23G C61G] | 0.628 |
| GGCCGGCAUGGUCCCAGCCUCCUCGCUGGCGCCGGCUGGGCAACAUUCCGAGGGGACCAUACCCUCGGUAAUGGCGAAUGGGACCCA [G59A C61A] | 1.02 |
| GGCCGGCAUGGGCCCAGCCUCCUCGCUGGCGCCGGCUGGGCAACAUUCCAAGGGGACCGUCCCCUCGGUAAUGGCGAAUGGGACCCA [U12G G50A] | 0.787 |
| GGCCGGCAUGGUCCCAGCCUCCUCGCUGGCGCCGGCUGGGCAACAUUCGGAGGGGACCGUCCCCUCCGUAAUGGCGAAUGGGACCCA [C49G G67C] | 1.22 |
| GGCCGGCAUGGUCCCAGCCUCCUCGCUGGCGCCGGCUGGGCAACAUUCCGAGGCGACCGUCCCCUCGGUAACGGCGAAUGGGACCCA [G54C U72C] | 0.69 |
| UGCCGGCAUGGUCCCAGCCUCCUCGCUGGCGCCGGCUGGGCAACAUUCCGAGGGGACCGUCCCCUCGGUAAUCGCGAAUGGGACCCA [G1U G73C] | 0.231 |
| GGCCGGCAAGGUCCCAGCCUCCCCGCUGGCGCCGGCUGGGCAACAUUCCGAGGGGACCGUCCCCUCGGUAAUGGCGAAUGGGACCCA [U9A U23C] | 1.08 |
| GGCCGGCAUGGUCCCAGCCUCCUGGCUGGCGCCGGCUGGGCAACAUUCCGAGGGGACCGUCCCCUCGGUAAUGGCGAAUUGGACCCA [C24G G80U] | 0.0746 |
| GGCCGGCAUGGUCCCAGCCUCCUCGCUGGCGCCGGCUGGCCAACAUUCCGAGGGGACCGUCCCCUCGCUAAUGGCGAAUGGGACCCA [G40C G68C] | 0.177 |
| GGCCGGCAUGGUGCCAGCCUCCUCGCUGGCGCCGGCUGGGCAACAUUCCGAGGGGACCGUCCCCUCGGUAAUGGCGAAUGGGCCCCA [C13G A83C] | 0.222 |
